# Values quoted from earlier work, collected in paper PMC3736882.
# pKd: −log10 of the molar value.
# Target: Factor VIII (Homo sapiens) (UniProt P00451)
# Chain of UniProt P00451 (P00451 760-1332): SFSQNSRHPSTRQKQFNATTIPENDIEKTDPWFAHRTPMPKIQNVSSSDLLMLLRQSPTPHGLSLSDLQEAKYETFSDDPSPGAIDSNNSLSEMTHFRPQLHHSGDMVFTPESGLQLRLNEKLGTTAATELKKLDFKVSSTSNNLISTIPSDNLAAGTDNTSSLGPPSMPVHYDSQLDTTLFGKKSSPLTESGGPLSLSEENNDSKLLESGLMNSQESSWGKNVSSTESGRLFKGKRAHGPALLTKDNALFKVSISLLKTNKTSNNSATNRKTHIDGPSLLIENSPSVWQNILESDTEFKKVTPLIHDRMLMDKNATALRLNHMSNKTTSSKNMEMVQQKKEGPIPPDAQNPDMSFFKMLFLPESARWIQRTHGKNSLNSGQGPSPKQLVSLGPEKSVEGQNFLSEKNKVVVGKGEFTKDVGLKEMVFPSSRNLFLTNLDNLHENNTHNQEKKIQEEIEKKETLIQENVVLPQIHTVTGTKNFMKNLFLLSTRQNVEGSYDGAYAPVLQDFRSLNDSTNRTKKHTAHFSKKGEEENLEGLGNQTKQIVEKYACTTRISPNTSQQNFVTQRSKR
substance,measurement,value
von Willebrand factor (from UniProt P04275),pKd,> 9.00
